Consider eight molecules from patent US20220033454A1 (ANWITA BIOSCIENCES, published 2022).

Sequences and labels used below:
T1: mIL22RA1-Fc fusion protein (mouse, UniProt Q80XZ4 16-230, limits assumed)
T1 construct: also called mouse IL-22Ra 1; IL-22Rα-1; not shown: Fc part
T1 sequence (looked up): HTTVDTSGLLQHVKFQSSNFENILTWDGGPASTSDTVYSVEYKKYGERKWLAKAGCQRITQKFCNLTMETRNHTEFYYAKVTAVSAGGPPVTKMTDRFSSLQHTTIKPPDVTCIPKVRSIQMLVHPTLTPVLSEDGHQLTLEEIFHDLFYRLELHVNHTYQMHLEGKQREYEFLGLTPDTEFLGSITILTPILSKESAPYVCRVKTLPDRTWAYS

T2: endogenous IL-22 receptor on AsPC-1 cells (UniProt Q8N6P7 16-574, limits assumed)
T2 sequence (looked up): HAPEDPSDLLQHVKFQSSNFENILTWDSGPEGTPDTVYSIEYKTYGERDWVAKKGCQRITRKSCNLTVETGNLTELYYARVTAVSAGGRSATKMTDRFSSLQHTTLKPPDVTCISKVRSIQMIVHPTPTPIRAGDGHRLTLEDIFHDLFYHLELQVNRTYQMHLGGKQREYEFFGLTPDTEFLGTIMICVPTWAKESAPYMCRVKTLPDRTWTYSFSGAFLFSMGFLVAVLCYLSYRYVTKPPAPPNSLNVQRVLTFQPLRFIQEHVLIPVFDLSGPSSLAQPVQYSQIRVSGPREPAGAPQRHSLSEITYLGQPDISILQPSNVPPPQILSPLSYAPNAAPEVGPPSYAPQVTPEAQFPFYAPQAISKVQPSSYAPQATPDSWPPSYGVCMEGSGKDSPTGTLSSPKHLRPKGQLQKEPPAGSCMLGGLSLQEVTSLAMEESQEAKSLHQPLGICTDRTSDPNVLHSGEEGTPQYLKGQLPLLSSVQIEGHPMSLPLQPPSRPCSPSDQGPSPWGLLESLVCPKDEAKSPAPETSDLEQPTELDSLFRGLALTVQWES

B1: mIL-22-anti-HSA-mIL-22 A9 (other)
chain: LPVNTRCKLEVSNFQQPYIVNRTFMLAKEASLADNNTDVRLIGEKLFRGVSAKDQCYLMKQVLNFTLEDVLLPQSDRFQPYMQEVVPFLTKLSNQLSSCHISGDDQNIQKNVRRLKETVKKLGESGEIKAIGELDLLFMSLRNACVSGGGGSGGGGSGGGGSQVQLVESGGGVVQPGGSLRLSCAASGFAFRGFGMSWVRQAPGKGLEWVSSINNGGSDTYYADSVKGRFTISRDNSKNTLYLQMNSLRAEDTAVYYCAIGGPGASPSGQGTQVTVSSGGGSGGGSGGGSGGGSLPVNTRCKLEVSNFQQPYIVNRTFMLAKEASLADNNTDVRLIGEKLFRGVSAKDQCYLMKQVLNFTLEDVLLPQSDRFQPYMQEVVPFLTKLSNQLSSCHISGDDQNIQKNVRRLKETVKKLGESGEIKAIGELDLLFMSLRNACV
notes: Single-chain fusion with two IL-22 domains, expressed in ExpiCHO cells
B2: hIL-22-anti-HSA A1 (other)
chain: APISSHCRLDKSNFQQPYITNRTFMLAKEASLADNNTDVRLIGEKLFHGVSMSERCYLMKQVLNFTLEEVLFPQSDRFQPYMQEVVPFLARLSNRLSTCHIEGDDLHIQRNVQKLKDTVKKLGESGEIKAIGELDLLFMSLRNACISGGGGSGGGGSGGGGSEVQLVESGGGLVQPGGSLRLSCAASGSTWSINTLAWYRQAPGKQRDLVARISSGGSTYYADSVKGRFTISRDNSKNTLYLQMNSLRAEDTAVYYCYAQSTWYPPSWGQGTLVTVSS
notes: Single-chain fusion of IL-22 and an anti-HSA VHH, expressed in ExpiCHO cells; also called fusion protein A1
B3: mIL-22-anti-HSA A2 (other)
chain: LPVNTRCKLEVSNFQQPYIVNRTFMLAKEASLADNNTDVRLIGEKLFRGVSAKDQCYLMKQVLNFTLEDVLLPQSDRFQPYMQEVVPFLTKLSNQLSSCHISGDDQNIQKNVRRLKETVKKLGESGEIKAIGELDLLFMSLRNACVSGGGGSGGGGSGGGGSEVQLVESGGGLVQPGGSLRLSCAASGSTWSINTLAWYRQAPGKQRDLVARISSGGSTYYADSVKGRFTISRDNSKNTLYLQMNSLRAEDTAVYYCYAQSTWYPPSWGQGTLVTVSS
notes: Single-chain fusion, expressed in ExpiCHO cells; also called fusion protein A2
B4: mIL-22-anti-HSA-mIL-22 A8 (other)
chain: LPVNTRCKLEVSNFQQPYIVNRTFMLAKEASLADNNTDVRLIGEKLFRGVSAKDQCYLMKQVLNFTLEDVLLPQSDRFQPYMQEVVPFLTKLSNQLSSCHISGDDQNIQKNVRRLKETVKKLGESGEIKAIGELDLLFMSLRNACVSGGGGSGGGGSGGGGSEVQLVESGGGLVQPGGSLRLSCAASGSTWSINTLAWYRQAPGKQRDLVARISSGGSTYYADSVKGRFTISRDNSKNTLYLQMNSLRAEDTAVYYCYAQSTWYPPSWGQGTLVTVSSGGGSGGGSGGGSGGGSLPVNTRCKLEVSNFQQPYIVNRTFMLAKEASLADNNTDVRLIGEKLFRGVSAKDQCYLMKQVLNFTLEDVLLPQSDRFQPYMQEVVPFLTKLSNQLSSCHISGDDQNIQKNVRRLKETVKKLGESGEIKAIGELDLLFMSLRNACV
notes: Single-chain fusion with two IL-22 domains, expressed in ExpiCHO cells; also called fusion protein A8
B5: mIL-22-hIgG1 Fc B1 (Fc fusion)
chain: LPVNTRCKLEVSNFQQPYIVNRTFMLAKEASLADNNTDVRLIGEKLFRGVSAKDQCYLMKQVLNFTLEDVLLPQSDRFQPYMQEVVPFLTKLSNQLSSCHISGDDQNIQKNVRRLKETVKKLGESGEIKAIGELDLLFMSLRNACVARGPTIKPCPPCKCPAPNLLGGPSVFIFPPKIKDVLMISLSPIVTCVVVDVSEDDPDVQISWFVNNVEVHTAQTQTHREDYNSTLRVVSALPIQHQDWMSGKEFKCKVNNKDLPAPIERTISKPKGSVRAPQVYVLPPPEEEMTKKQVTLTCMVTDFMPEDIYVEWTNNGKTELNYKNTEPVLDSDGSYFMYSKLRVEKKNWVERNSYSCSVVHEGLHNHHTTKSFSRTPGK
B6: Anti-HSA-mIL-22 A3 (other)
chain: QVQLVESGGGVVQPGGSLRLSCAASGFAFRGFGMSWVRQAPGKGLEWVSSINNGGSDTYYADSVKGRFTISRDNSKNTLYLQMNSLRAEDTAVYYCAIGGPGASPSGQGTQVTVSSGGGSGGGSGGGSGGGSLPVNTRCKLEVSNFQQPYIVNRTFMLAKEASLADNNTDVRLIGEKLFRGVSAKDQCYLMKQVLNFTLEDVLLPQSDRFQPYMQEVVPFLTKLSNQLSSCHISGDDQNIQKNVRRLKETVKKLGESGEIKAIGELDLLFMSLRNACV
notes: Single-chain fusion, expressed in ExpiCHO cells
B7: mIL-22-anti-HSA A4 (other)
chain: LPVNTRCKLEVSNFQQPYIVNRTFMLAKEASLADNNTDVRLIGEKLFRGVSAKDQCYLMKQVLNFTLEDVLLPQSDRFQPYMQEVVPFLTKLSNQLSSCHISGDDQNIQKNVRRLKETVKKLGESGEIKAIGELDLLFMSLRNACVSGGGGSGGGGSGGGGSQVQLVESGGGVVQPGGSLRLSCAASGFAFRGFGMSWVRQAPGKGLEWVSSINNGGSDTYYADSVKGRFTISRDNSKNTLYLQMNSLRAEDTAVYYCAIGGPGASPSGQGTQVTVSS
notes: as for B6

One assay addresses T1, mIL22RA1-Fc fusion protein. The assay is described as follows: BLI (Octet RED96); mIL22RA1-Fc captured on AHC biosensor, fusion protein in solution at 400 nM, global fit. The method, then: OCTET® RED96 was used to characterize the interactions of an IL-22 fusion protein with a mouse IL-22Ra 1 (mIL22RA1). Briefly, an mIL22RA1-Fc fusion protein was loaded onto an anti-human IgG Fc capture (AHC) biosensor. The biosensor was then dipped into a solution containing the IL-22 fusion protein at 400 nM. Primary experimental data was analyzed with global fitting to determine a dissociation constant (Kd).
The molecule B1 had a dissociation constant Kd of 0.77 nM.
B2: the Kd was found to be 300 nM.
Consider B3, for which the affinity, expressed as Kd, was 61 nM.
In turn, B4 displayed a Kd of 1.2 nM.
The same measure, in the same setting: as for B5, the figure is 1.4 nM; as for B6, 30 nM.
The same measure, in the same setting: the figure for B7 is 67 nM.

The next assay addresses endogenous IL-22 receptor on AsPC-1 cells (UniProt Q8N6P7). The assay is described as follows: cell-based or functional assay.
On to “recombinant human IL-22 (from UniProt Q9GZX6 34-179) (ligand)”, for which the EC50 of STAT3 phosphorylation (phospho-STAT3 Tyr705 HTRF) in AsPC-1 cells is 90 nM.

The target of a further assay is T2, endogenous IL-22 receptor on AsPC-1 …. Nature of the assay: cell-based or functional assay.
For B1, the “EC50 of STAT3 phosphorylation (phospho-STAT3 Tyr705 HTRF) in AsPC-1 cells” value came out at 500 nM.
The same measure, in the same setting: the figure for B2 is 800 nM; for B3 it is 700 nM; for B4 it is 500 nM.
As for B6, the “EC50 of STAT3 phosphorylation (phospho-STAT3 Tyr705 HTRF) in AsPC-1 cells” value came out at 500 nM.
Same read-out and setting: the figure for B7 is 600 nM.

The Kd is the equilibrium constant for the complex coming apart. A higher Kd goes with a looser complex.
